Patent US20250353912A1, “COMPOSITIONS AND METHODS COMPRISING ANTIBODIES THAT BIND TO COVALENT PEPTIDE CONJUGATES” (New York University, priority 2022, published 2025)
Substitutions are numbered along the chain they refer to. Values belong to the molecule of their own block, whether it stands above or below them.

Target: osimertinib-EGFR/HLA-A*02 (Homo sapiens, UniProt P00533)
Assay: Yeast-display binding of affinity matured clones
Conditions: for binding to EGFR/HLA-A*02 (no drug-conjugation) / binding to osimertinib-EGFR/HLA-A*02: binding titration, FIG. 39; for inhibition of antigen binding by free drug: osimertinib-EGFR/HLA-A*02 10 nM, free osimertinib 1 μM, FIG. 40
Protocol: FIG. 40. Binding of EO_Q16 and EO_Q17 to osimertinib-EGFR/HLA-A*02 (10 nM) in the absence and presence of free osimertinib (1 μM), showing that antigen binding of these antibodies is not inhibited by the presence of free drug.
The binding partners described above in this Example show higher binding signals to osimertinib-EGFR/HLA-A*02, as tested in the yeast display format and as shown in FIGS. 39 and 40.

binding to osimertinib-EGFR/HLA-A*02: high affinity | inhibition of antigen binding by free drug: not inhibited
B1: EO_Q16: affinity matured clone of OEA2-5, osimertinib-EGFR on HLA-A*02 (antibody, V domains shown)
VH: EVQLVESGGGLVQPGGSLRLSCAASGFTISSSYIHWVRQAPGKGLEWVAYISPSYGSTSYADSVKGRFTISADTSKNTAYLQMNSLRAEDTAVYYCAREYVTMSIDYWGQGTLVTVSS
VL: DIQMTQSPSSLSASVGDRVTITCRASQSVSSAVAWYQQKPGKAPKLLIYSASSLYSGVPSRFSGSRSGTDFTLTISSLQPEDFATYYCQQYSDWPITFGQGTKVEIKRTV
binding to EGFR/HLA-A*02 (no drug-conjugation): not to the equivalent antigen without drug conjugation

binding to osimertinib-EGFR/HLA-A*02: high affinity | inhibition of antigen binding by free drug: not inhibited
B2: EO_Q17: affinity matured clone of OEA2-5, osimertinib-EGFR on HLA-A*02 (antibody, V domains shown)
VH: B1 VH with Y100L, T102E, S104T, I105P
VL: B1 VL with D93S
binding to EGFR/HLA-A*02 (no drug-conjugation): not to the equivalent antigen without drug conjugation
